Measured values published in the DeepSol protein solubility set.

Assay: soluble on expression in E. coli; label from the status in PepcDB or PDB records

Soluble on expression in E. coli, not soluble:
MGSDKIHHHHHHMKTYDWIVVGGGMTGAVLAYELVKTGFSVLLLEKDAVAENATRYSYGGLAYWSGSTPLTRQLCQEARDRYNILPQELDADIELRELDLLLTIPADSDPQVTAELYAQCAVPPCLLSVPEACELELLLNPGAIAGALTVKHGHIHPQKTVQAYIQAFLRAGGELQIGEVSQVTSGGVKTTTVTYHSANVVVCAGGLSRRLLKSVGVSIKVYFTHAEIIETPPVDLRLNTLVMPANLQRFKLESTSTEVDELWNKPGNQLAPPILDAGAIQFLDGSLRLGQISRVLTDVDAYINHEESEDWLRQSISHILPILGNLPGNWHHCLVAFSSNSLPVIGVISELPGVHIFSGFSNPLVLIPPLAQRFAKFLSGTEDDIIPQFSDFLILTGS
MGSDKIHHHHHHMKVKYIAAILLSTQLVYTACDDMGFLQIKPDSLELTDDRIKTVDDLENLLLGAYNGIRSSGFWGGRTLRGFDVIADDGVADVATFEWVQMSAHTMNLVNAVGRDTWTATYNAINMANQVAFSDLGESILASDPQKEAQFKAEASFIRALGYFHLVRAFGLPYAEETKDIAEMGVPLRLRGVMDRATAFEVVQRSTVSEVYSQIISDLEYAIGNLPGENKVESGRATVDGAKALLAKVYFYKHDFGNAAKYAEQVINTQKYDLDEDLTAKFGRAEKKTVTQEIVAMIPSASLIEDSWGGLRDYRTNGLALPTSRPSNELIAAYDQQNDNRFKTFFKNIDGSWYTLKFDYEYMDGIIIGYNELLLLYAESLAESNGNMNQALNALQKIEKRAYGKANTTTTDRASFIKAVQKERRLEIALQGERLFELKRIKQSVRGEAWDSHKVMFQIPDVEQNGNPDVNMN
MGSDKIHHHHHHMKVSADVRAMIERRKKNYSLEAPFYTSDEIFALDMEAIFRQHWIQVAVEPDVPEPGDYITVDIGNDSILIVRDDDMQVRAFHNVCRHRGARLCNTDKGSLGNIVCPYHSWTYNLNGDLMFAEHMGEQFDRCKHSLKAVHVENLAGLIFICLADNPPADFAVVRAAMEPYMLPHALASCKIAASIDIIEEGNWKLTMENNRECYHCVANHPELTISLYEYGFGYQRTPANEEGMAAFEETVARRTAQWEAMQLPSAEIERLADLVTGFRTQRLPLDRDGESQTLDAKVASKKLLGGFEQADLGGLSFWTQPNSWHHFMSDHIVSFSVIPLSAGKTLVRTKWLVHKDAREGIDYDVDNLTAVWRATNDQDRALVEYSQRGATSSAYEPGPYSPFTEGLVEKFCEWYIGRMAQYSNAPQTHDAGDTAPASHGEKVVSFKR
MGSDKIHHHHHHMKVVSLLTDFGDFYPGVMKGVILSLAPEARIVDITHSVEPQNILQGAFLLYHSFRYFRNAVHVAVVDPGVGSERRALVIEGKNHFFVGPDNGILYPSAVEDGIKAAYSIKEEISELVGELSSTFHGRDIFAPAAAMVVRGDYTYFEEINKEELEKLELFDCSIQGNKVRCRVVYVDRFGNVVTNLREVKGKGFYFRGVEFPFVKTYSDVDVGKPLSLIGSFGTLELSVREGSAAEMLGIKRGGGWIELEVL
MGSDKIHHHHHHMKWRGYLTPVTENYLHAYGVGYISYVLARKFHVDSVKAFVTGTLHDLGGAVPADERVTVAESIGISLNDEEREVPLLVHAKLGKYFAQTLFDITDEDMLNAILFHTTCIDRASDLVKIVFLADKIRWDRNGTPPYLDGLLAALEISLDDGCSYFLKWLWNSDLYIVHPYLSRSYGAYVRQQQYNPISLQDFSVLQGNLNENLVKKYYLHDIYQEFHRTFYHAHLASVLASKHSVNTEEAYVTSALVNMTNTIKDDELETIASVLNLNVQVPIRPQLTSILARDEYGITSLEMLKTLKSFPQIPSNHNSLLWVVVMSWICQKSIKCEVEDE
MGSDKIHHHHHHMKYEKIAFFRFFGRLNDFFRNSERIKTHRFTGFQTVKDRIEALGVPHVEVSLITLNGKPVGFDHMVEDGELFFVYPEFQNIEIPEDWLVTPRYIGEPRFVLDIHLGKLARLLRMLGFEAVFGEESDEKLCWMAVKKKAILLSRDTGLLKRKELVFGYYVRNTDPKEQLVEVVERYDLKKWMKPFTRCIECGVELEEVPKEAVKNRVPPKVYGFFNEFARCPVCGRIYWKGSHYDHMVEFIKSNINKG
MGSDKIHHHHHHMKYILVTGGVISGIGKGVIASSVGTILKSCGLHVTSIKIDPYINIDAGTFSPYEHGEVFVLDDGGEVDLDLGNYERFLDIRLTKDNNLTTGKIYQYVINKERKGDYLGKTVQVVPHITDAIQEWVMRQALIPVDEDGLEPQVCVIELGGTVGDIESMPFIEAFRQFQFKVKRENFCNIHVSLVPQPSSTGEQKTKPTQNSVRELRGLGLSPDLVVCRCSNPLDTSVKEKISMFCHVEPEQVICVHDVSSIYRVPLLLEEQGVVDYFLRRLDLPIERQSRKMLMKWKEMADRYDRLLETCSIALVGKYTKFSDSYASVIKALEHSALAINHKLEIKYIDSTDLEPSTLQEEPVRYHEAWQKLCSAHGVLVPGGFGVRGTEGKIQAIAWARKQKKPFLGVCLGMQLAVVEFSRNVLGWQDANSTEFDPKTSHPVVIDMPEHNPGQMGGTMRLGKRRTLFQTKNSVMRKLYGDTDYLEERHRHRFEVNPVLKKCLEEQGLKFVGQDVEGERMEIVELEDHPFFVGVQYHPEFLSRPIKPSPPYFGLLLASVGRLPHYLQKGCRLSPRDTYSDRSGSSSPDSEITELKFPSISQD
MGSDKIHHHHHHMKYLKQYMIIGAVTMITSCSDFLDTAPLDALSPATTWKTEDDAQKFAIGCYGGNNYDTSSWEDGGNILYLDCGSDFGYNNFEWENYKTIGNGTMTPSGAVASFYDFSVIRRCNTFLEKVKEIPFSNEQTKNDLIGQVRTIRAYRYFVMNWWYGGVPVIDNYNSADEAKVPRKSEEEVKNYVNTELDTAIGELNASPSERGRIAKGAAMAIRMRSALYYGDYVKAKEMAEAIMNLKQYDLEPDYSNLFKVAGQDSKEIILAVQYVNSTLELGTIGQMYNNGDGGWSSIVPTQNLVDTYEMADGLTKEESGSYDPNHPFAGRDPRMAMTIIYPGMDWNGTVVNTLDKTINGKDNANYPPSANNASKTALTWRKYLDEQYANGIWNTNACPIVIRYAEVLLTYAEAVNELSGPSADVYDKLDLIRGRVGMPKVDREKYASKETLRRLIRRERGVELAGEGVRRADILRWKDDNGKMVAETVLNGVLERVVGTVNYAETDPTKRAEIDTNAPATDKKIEDRVFKVHNRYNPIPQGAIDNNPNLEQNPGY
MGSDKIHHHHHHMLAGKTASEIFDNIRHLVQSGGLQPGEVLPPVRELASQLAVNRNTVAAAYKRLVTSGLAVSQGRNGTAIKARDTLPALEGGDPTTPLNDISSGNPDPARLPDLPRYLGQIARTPRLYGDAPIEPRLGQWAEAWFAREIAVPFAVNLASGAIDALERLLCALLLPGDGVVVEDPCFLSSINMVRYAGFTPCPVAVDAEGMDPDGLEEALRNGARAVILTPRAHNPTGCSLTETRAHALREVLARYPQVLAIVDDHFALLSATPWHSPLPASTQRWALVRSMSKTLGPDLRLAFIASDAATSAALRLRLNAGSQWVSHLLQDLTLACLTDEAFIASMTETRRHYRQQNEKLAAALARHGFSHATPGDGLNFWLPLPAASQPYALRLARAGWLVREGEVFGIRTPSHGLRLSLGRLSDAEISRLAADIAQALDAP
MGSDKIHHHHHHMLANLNQAMDYIEEHLTEEVSFDELAKKTGISVYHFKRTFSFITGMSLAEYIKKRPLAEANLALLAGEKVTDVAFKYGYQSIEGFSRAFRDWSGQAPSEVMKTQIQKTFPKFSFYIDIKGGQSMDVKLIEKPAFQIVGVSQKVPLQYQGENQAIMELAQRITPQQRAEMHTFDDIYPHQVVNASFDFQEGRTTEGGEMTHMIGFATSQENTYEDLEQLSVPAHTWAVFPNEGPFPQTLQETWAKIFSEWLPSSGYQVVAAPEISFTQYQGPAEAKYSEIWLAVTATK
